Reference: US20070105771A1 (Y S THERAPEUTICS, published 2007)

Assays:
[1] = biological target: human CD26 on the cell surface (human, UniProt P27487 1-766); assay: cell-based or functional assay
[2] = biological target: T1, human CD26-derived 13 mer peptide 23 (human); assay: peptide microarray
T1 peptide: NSTFDEFGHSIND
Experimental: (§1) The overnight incubation was followed by three washings with each of PBS buffer pH 7.5 and water. The microarrays were then scanned using ArrayWorx-Microarray Scanner.
(§2) The SPOT recognition software package ArrayPro was used for data analysis. The mean of signal intensities from 3 identical subarrays on each microarray image was used for data evaluation.

[3] = biological target: T2, human CD26-derived 13 mer peptide 9 (human); assay: peptide microarray
T2 peptide: SDHEYLYKQENNI
Experimental: as §1, §2

[4] = biological target: T3, human CD26-derived 13 mer peptide 114 (human); assay: peptide microarray
T3 peptide: DSLSSVTNATSIQ
Experimental: as §1, §2

[5] = biological target: T4, human CD26-derived 13 mer peptide 47 (human); assay: peptide microarray
T4 peptide: RQLITEERIPNNT
Experimental: as §1, §2

[6] = biological target: T5, human CD26-derived 13 mer peptide 16 (human); assay: peptide microarray
T5 peptide: VFNAEYGNSSVFL
Experimental: as §1, §2

[7] = biological target: T6, human CD26-derived 13 mer peptide 111 (human); assay: peptide microarray
T6 peptide: FFVVNTDSLSSVT
Experimental: as §1, §2

[8] = biological target: T7, human CD26-derived 13 mer peptide 32 (human); assay: peptide microarray
T7 peptide: DGQFILLEYNYVK
Experimental: as §1, §2

[9] = biological target: T8, human CD26-derived 13 mer peptide 119 (human); assay: peptide microarray
T8 peptide: SIQITAPASMLIG
Experimental: as §1, §2

[10] = biological target: T9, human CD26-derived 13 mer peptide 18 (human); assay: peptide microarray
T9 peptide: EYGNSSVFLENST
Experimental: as §1, §2

[11] = biological target: T10, human CD26-derived 13 mer peptide 24 (human); assay: peptide microarray
T10 peptide: TFDEFGHSINDYS
Experimental: as §1, §2

[12] = biological target: T11, human CD26-derived 13 mer peptide 44 (human); assay: peptide microarray
T11 peptide: IYDLNKRQLITEE
Experimental: as §1, §2

[13] = biological target: T12, human CD26-derived 13 mer peptide 103 (human); assay: peptide microarray
T12 peptide: VRVPYPKAGAVNP
Experimental: as §1, §2

[14] = biological target: T13, human CD26-derived 13 mer peptide 25 (human); assay: peptide microarray
T13 peptide: DEFGHSINDYSIS
Experimental: as §1, §2

[15] = biological target: T14, human CD26-derived 13 mer peptide 120 (human); assay: peptide microarray
T14 peptide: QITAPASMLIGDH
Experimental: as §1, §2

[16] = biological target: T15, human CD26-derived 13 mer peptide 26 (human); assay: peptide microarray
T15 peptide: FGHSINDYSISPD
Experimental: as §1, §2

[17] = biological target: T16, human CD26-derived 13 mer peptide 105 (human); assay: peptide microarray
T16 peptide: YPKAGAVNPTVKF
Experimental: as §1, §2

[18] = biological target: T17, human CD26-derived 13 mer peptide 19 (human); assay: peptide microarray
T17 peptide: GNSSVFLENSTFD
Experimental: as §1, §2

[19] = biological target: T18, human CD26-derived 13 mer peptide 45 (human); assay: peptide microarray
T18 peptide: DLNKRQLITEERI
Experimental: as §1, §2

[20] = biological target: T19, human CD26-derived 13 mer peptide 46 (human); assay: peptide microarray
T19 construct: also called NKRQL1TEERIPN
T19 peptide: NKRQLITEERIPN
Experimental: as §1, §2

[21] = biological target: T20, human CD26-derived 13 mer peptide 118 (human); assay: peptide microarray
T20 peptide: ATSIQITAPASML
Experimental: as §1, §2

[22] = biological target: T21, human CD26-derived 13 mer peptide 14 (human); assay: peptide microarray
T21 peptide: NNILVFNAEYGNS
Experimental: as §1, §2

[23] = biological target: T22, human CD26-derived 13 mer peptide 116 (human); assay: peptide microarray
T22 peptide: SVTNATSIQITAP
Experimental: as §1, §2

[24] = biological target: T23, human CD26-derived 13 mer peptide 71 (human); assay: peptide microarray
T23 peptide: TGKEDIIYNGITD
Experimental: as §1, §2

[25] = biological target: T24, human CD26-derived 13 mer peptide 22 (human); assay: peptide microarray
T24 peptide: LENSTFDEFGHSI
Experimental: as §1, §2

[26] = biological target: T25, human CD26-derived 13 mer peptide 87 (human); assay: peptide microarray
T25 peptide: GTFLAYAQFNDTE
Experimental: as §1, §2

[27] = biological target: T26, human CD26-derived 13 mer peptide 27 (human); assay: peptide microarray
T26 peptide: HSINDYSISPDGQ
Experimental: as §1, §2

[28] = biological target: T27, human CD26-derived 13 mer peptide 110 (human); assay: peptide microarray
T27 peptide: VKFFVVNTDSLSS
Experimental: as §1, §2

[29] = biological target: T28, human CD26-derived 13 mer peptide 21 (human); assay: peptide microarray
T28 peptide: VFLENSTFDEFGH
Experimental: as §1, §2

[30] = biological target: T29, human CD26-derived 13 mer peptide 42 (human); assay: peptide microarray
T29 peptide: ASYDIYDLNKRQL
Experimental: as §1, §2

[31] = biological target: T30, human CD26-derived 13 mer peptide 12 (human); assay: peptide microarray
T30 peptide: YKQENNILVFNAE
Experimental: as §1, §2

[32] = biological target: T31, human CD26-derived 13 mer peptide 112 (human); assay: peptide microarray
T31 peptide: VVNTDSLSSVTNA
Experimental: as §1, §2

[33] = biological target: T32, human CD26-derived 13 mer peptide 106 (human); assay: peptide microarray
T32 peptide: KAGAVNPTVKFFV
Experimental: as §1, §2

[34] = biological target: T33, human CD26-derived 13 mer peptide 109 (human); assay: peptide microarray
T33 peptide: PTVKFFVVNTDSL
Experimental: as §1, §2

[35] = biological target: T34, human CD26-derived 13 mer peptide 96 (human); assay: peptide microarray
T34 peptide: YSFYSDESLQYPK
Experimental: as §1, §2

[36] = biological target: T35, human CD26-derived 13 mer peptide 61 (human); assay: peptide microarray
T35 peptide: WNNDIYVKIEPNL
Experimental: as §1, §2

[37] = biological target: T36, human CD26-derived 13 mer peptide 51 (human); assay: peptide microarray
T36 peptide: IPNNTQWVTWSPV
Experimental: as §1, §2

[38] = biological target: T37, human CD26-derived 13 mer peptide 113 (human); assay: peptide microarray
T37 peptide: NTDSLSSVTNATS
Experimental: as §1, §2

[39] = biological target: T38, human CD26-derived 13 mer peptide 100 (human); assay: peptide microarray
T38 peptide: LQYPKTVRVPYPK
Experimental: as §1, §2

[40] = biological target: T39, human CD26-derived 13 mer peptide 108 (human); assay: peptide microarray
T39 peptide: VNPTVKFFVVNTD
Experimental: as §1, §2

[41] = biological target: T40, human CD26-derived 13 mer peptide 99 (human); assay: peptide microarray
T40 peptide: ESLQYPKTVRVPY
Experimental: as §1, §2

[42] = biological target: T41, human CD26-derived 13 mer peptide 130 (human); assay: peptide microarray
T41 peptide: ATQERISLQWLRR
Experimental: as §1, §2

[43] = biological target: T42, human CD26-derived 13 mer peptide 89 (human); assay: peptide microarray
T42 peptide: AYAQFNDTEVPLI
Experimental: as §1, §2

[44] = biological target: T43, human CD26-derived 13 mer peptide 20 (human); assay: peptide microarray
T43 peptide: SSVFLENSTFDEF
Experimental: as §1, §2

[45] = biological target: T44, human CD26-derived 13 mer peptide 88 (human); assay: peptide microarray
T44 peptide: FLAYAQFNDTEVP
Experimental: as §1, §2

[46] = biological target: T45, human CD26-derived 13 mer peptide 90 (human); assay: peptide microarray
T45 peptide: AQFNDTEVPLIEY
Experimental: as §1, §2

[47] = biological target: T46, human CD26-derived 13 mer peptide 115 (human); assay: peptide microarray
T46 peptide: LSSVTNATSIQIT
Experimental: as §1, §2

[48] = biological target: T47, human CD26-derived 13 mer peptide 117 (human); assay: peptide microarray
T47 peptide: TNATSIQITAPAS
Experimental: as §1, §2

[49] = biological target: T48, human CD26-derived 13 mer peptide 104 (human); assay: peptide microarray
T48 peptide: VPYPKAGAVNPTV
Experimental: as §1, §2

[50] = biological target: T49, human CD26-derived 13 mer peptide 102 (human); assay: peptide microarray
T49 peptide: KTVRVPYPKAGAV
Experimental: as §1, §2

[51] = biological target: T50, human CD26-derived 13 mer peptide 74 (human); assay: peptide microarray
T50 peptide: IYNGITDWVYEEE
Experimental: as §1, §2

[52] = biological target: T51, human CD26-derived 13 mer peptide 49 (human); assay: peptide microarray
T51 construct: also called TEERJPNNTQWVT
T51 peptide: TEERIPNNTQWVT
Experimental: as §1, §2

[53] = biological target: T52, human CD26-derived 13 mer peptide 122 (human); assay: peptide microarray
T52 peptide: PASMLIGDHYLCD
Experimental: as §1, §2

Chain of human CD26 on the cell surface (P27487 whole entry): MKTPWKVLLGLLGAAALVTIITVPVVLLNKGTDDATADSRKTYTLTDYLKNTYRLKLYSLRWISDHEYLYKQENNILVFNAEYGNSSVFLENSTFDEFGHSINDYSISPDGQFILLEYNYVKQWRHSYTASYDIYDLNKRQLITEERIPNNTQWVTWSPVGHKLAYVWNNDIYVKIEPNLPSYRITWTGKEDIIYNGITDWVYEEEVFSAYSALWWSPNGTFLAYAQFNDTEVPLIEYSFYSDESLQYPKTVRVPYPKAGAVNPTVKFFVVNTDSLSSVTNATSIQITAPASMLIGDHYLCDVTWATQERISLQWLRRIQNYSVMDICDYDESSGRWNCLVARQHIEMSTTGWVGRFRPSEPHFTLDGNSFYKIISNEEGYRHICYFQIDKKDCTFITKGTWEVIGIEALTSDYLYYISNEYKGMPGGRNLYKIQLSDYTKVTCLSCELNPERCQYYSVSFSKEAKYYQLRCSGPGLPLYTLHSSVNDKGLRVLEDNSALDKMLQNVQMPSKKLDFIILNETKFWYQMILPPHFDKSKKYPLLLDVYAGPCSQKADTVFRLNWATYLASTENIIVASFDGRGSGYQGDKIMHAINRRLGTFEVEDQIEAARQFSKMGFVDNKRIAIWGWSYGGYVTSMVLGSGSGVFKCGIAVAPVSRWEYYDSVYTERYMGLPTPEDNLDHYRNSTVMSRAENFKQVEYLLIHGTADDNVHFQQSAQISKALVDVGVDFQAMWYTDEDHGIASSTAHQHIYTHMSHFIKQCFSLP

B1: rhuMAb 420 (antibody, human IgG1, V domains shown)
VH: EVQLVESGGGVKQPGETLRLTCTASGFSLSTYGVHWVRQAPGKGLEWVGVIWGDGRTDYDAAFMSRVTISKDTSKSTVYLQMNSLRAEDTAVYYCMRNRHDWFDYWGQGTTVTVSS
VL: EIEMTQSPSSLSVSAGERATISCSASQDIRNSLNWYQQKPGQAPRLLIYYSSNLHTGVPARFSGSGSGTDFTLTISRLEPEDVAIYYCQQSNKLPLTFGSGTKVEIKR
notes: X420 VH and X380 VL with human IgG1 and human kappa constant regions; also called X420 (IgG1)
3.7%: percent inhibition, MTT assay, Jurkat CD26+ cells, 0.05 ug/ml [1]
9.6%: percent inhibition, MTT assay, Jurkat CD26+ cells, 0.25 ug/ml [1]
0: Mean Signal Value [2] | Mean Signal Value [3] | Mean Signal Value [4] | Mean Signal Value [5] | Mean Signal Value [6] | Mean Signal Value [7] | Mean Signal Value [8] | Mean Signal Value [9] | Mean Signal Value [10] | Mean Signal Value [11] | Mean Signal Value [12] | Mean Signal Value [13] | Mean Signal Value [14] | Mean Signal Value [15] | Mean Signal Value [16] | Mean Signal Value [17] | Mean Signal Value [18] | Mean Signal Value [19] | Mean Signal Value [20] | Mean Signal Value [21] | Mean Signal Value [22] | Mean Signal Value [23] | Mean Signal Value [24] | Mean Signal Value [25] | Mean Signal Value [26] | Mean Signal Value [27] | Mean Signal Value [28] | Mean Signal Value [29]
15.9%: percent inhibition, MTT assay, Jurkat CD26+ cells, 5 ug/ml [1]
16.6%: percent inhibition, MTT assay, Jurkat CD26+ cells, 2.5 ug/ml [1]
9.2%: percent inhibition, MTT assay, Jurkat CD26+ cells, 0.5 ug/ml [1]

B2: rhuMAb 409 (antibody, human IgG1, V domains shown)
VH: QVKLQESGPGLVQPSQTLSITCTVSGFSLTTYGVHWVRQSPGKGLEWLGVIWGGGRTDYDAAFISRLSISKDNSKSQVFFKMNSLQANDTAIYYCVRNRHDWFDYWGQGTTVTVSS
VL: DIQMTQSPSSLSASLGDRVTITCSASQGIRNSLNWYQQKPDGAVKLLIYYSSNLHSGVPSRFSGSGSGTDFSLTISNLEPEDIATYYCQQSIKLPFTFGSGTKLEIKR
notes: CM03 VH and VL with human IgG1 heavy chain constant region and human kappa constant region; also called X409
21.7%: percent inhibition, MTT assay, Jurkat CD26+ cells, 5 ug/ml [1]
4.8%: percent inhibition, MTT assay, Jurkat CD26+ cells, 0.05 ug/ml [1]
0: Mean Signal Value [2] | Mean Signal Value [30] | Mean Signal Value [31] | Mean Signal Value [32] | Mean Signal Value [33] | Mean Signal Value [34] | Mean Signal Value [35] | Mean Signal Value [36] | Mean Signal Value [3] | Mean Signal Value [4] | Mean Signal Value [5] | Mean Signal Value [37] | Mean Signal Value [38] | Mean Signal Value [39] | Mean Signal Value [40] | Mean Signal Value [7] | Mean Signal Value [9] | Mean Signal Value [41] | Mean Signal Value [10] | Mean Signal Value [11] | Mean Signal Value [12] | Mean Signal Value [13] | Mean Signal Value [14] | Mean Signal Value [15] | Mean Signal Value [16] | Mean Signal Value [17] | Mean Signal Value [43] | Mean Signal Value [44] | Mean Signal Value [18] | Mean Signal Value [45] | Mean Signal Value [19] | Mean Signal Value [20] | Mean Signal Value [21] | Mean Signal Value [22] | Mean Signal Value [46] | Mean Signal Value [47] | Mean Signal Value [48] | Mean Signal Value [49] | Mean Signal Value [23] | Mean Signal Value [50] | Mean Signal Value [51] | Mean Signal Value [25] | Mean Signal Value [52] | Mean Signal Value [27] | Mean Signal Value [53] | Mean Signal Value [28] | Mean Signal Value [29]
19.7%: percent inhibition, MTT assay, Jurkat CD26+ cells, 2.5 ug/ml [1]
10: Mean Signal Value [42]
12.9%: percent inhibition, MTT assay, Jurkat CD26+ cells, 0.25 ug/ml [1]
14.7%: percent inhibition, MTT assay, Jurkat CD26+ cells, 0.5 ug/ml [1]
